Data: patent US20190000969A1 (AbbVie / Abbott, published 2019)
Numbering of substitutions follows the chain as printed. Each block holds one binder with its values, some of them ahead of it.

Assays:
[1] = target: T1, human UPK1B (hUPK1B) protein, full length, on the cell surface (human, UniProt O75841 1-260); experiment: cell-based or functional assay
T1 sequence: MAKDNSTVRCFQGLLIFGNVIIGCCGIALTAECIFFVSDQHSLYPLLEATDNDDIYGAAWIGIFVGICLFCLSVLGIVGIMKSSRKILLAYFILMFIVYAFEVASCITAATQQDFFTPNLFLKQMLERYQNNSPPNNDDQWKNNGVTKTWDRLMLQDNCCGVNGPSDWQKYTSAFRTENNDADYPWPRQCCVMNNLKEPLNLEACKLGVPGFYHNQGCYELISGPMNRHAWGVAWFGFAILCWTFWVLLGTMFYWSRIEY

[2] = target: T1, human UPK1B (hUPK1B) protein, full …; experiment: cell-based or functional assay; remark: listed apart in the source
[3] = target: T2, hUPK1B(108-229)-Fc, second extracellular domain of human UPK1B fused to human IgG2 Fc (human, UniProt O75841 108-229); experiment: SPR, Biacore T200; human UPK1B Fc-fusion captured on anti-human chip, papain-digested Fab as analyte, 1:1 Langmuir fit
T2 construct: Expressed behind an IgK signal peptide, which is not part of the secreted protein; also called hUPK1B-Fc; Fc-fusion human UPK1B protein; not shown: human IgG2 Fc protein
T2 sequence: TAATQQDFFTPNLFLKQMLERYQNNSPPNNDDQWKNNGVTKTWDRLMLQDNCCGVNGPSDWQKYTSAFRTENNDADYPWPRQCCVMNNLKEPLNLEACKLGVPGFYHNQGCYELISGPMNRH

IVK, HxUPK1B, 250pM, fz, % live [cont.] [2]: 19.3 % live
B3: SC115.46 (antibody, V domains shown)
VH: QVQLQQSGPQLVRPGASVKISCKASGYSFTTSWMHWMKQRPGQGLEWIGMIDPSDSETGLNQIFRDKATLTVDKYSSTAYMQLSSPTSEDSAVYYCARRGRFSYDYGGFAYWGQGTLVTVSA
VL: DIVMTQSPSSLTVTAGEKVTMSCKSSQSLLNSGNQKNYLTWYQQKPGQTPKLLIYWASTRESGVPDRFTGSGSGTDFTLTISSVQAEDLAVYYCQNDYSNPFTFGGGTKLEIK

Kd [3]: 6.4 nM
B6: chimSC115.9 (Fab, V domains shown)
VH: QVQLQQPGAELVKPGASVKMSCKASGYTFTSNWMHWVKQRPGQGLEWIGVIDPSDTYISYNQKFKGKATLTVDTSSSTAYMQLSSLTSEDSAVYYCTRRDSGWYFDVWGAGTTVTVSS
VL: B3 VL with T49P, N100Y, F102L, G106A, I112L
notes: also called Fab fragment (papain-digested) of chimeric SC115.9; parental chimeric antibody

Kd [3]: 3.6 nM
B7: chimSC115.18 (Fab, V domains shown)
VH: QVQLQQPGAELVRPGSSVKLSCKASGYTFTSYWMHWVKQRPMQGLEWIGNIDPSDSEIYYNQKFKDKATLTVDKSSGTAYMQLSSLTSEDSAVYYCARRSGSRDYYGMDDWGQGTSVTVSS
VL: B3 VL with S22R, T49P, Y55S, E61D, G74R, T78I, N100Y, F102L, G106A, I112L
notes: also called Fab fragment (papain-digested) of chimeric SC115.18; parental chimeric antibody

IVK, HxUPK1B, 250pM, fz, % live [cont.] [2]: 104 % live
B9: SC115.90 (antibody, IgG2a, V domains shown)
VH: DVKLVESGGGFVRLGGSLKLSCAASGFTFNNYAMSWVRQTPEKRLEWVAIISRGGTKNYYPDSVKGRFTISRDNAKNTLYLQMSSLRSEDTAMYYCARLYYDDYEGYMDYWGQGTSVTVSS
VL: DIVLTQSPASLAVSLGQRATISCRASKSVSTSGYSYMHWYQQKPGQPPKLLIYLASNLESGVPARFSGSGSGTDFTLNIHPVEEEDAATYYCQHSRELPLTFGAGTRLELK

IVK, HxUPK1B, 250pM, fz, % live [1]: 100 % live
B10: SC115.51 (antibody, V domains shown)
VH: QVQLKQSGPGLVQPSQSLSITCTVSGFSLTNYGIHWVRQSPGKGLEWLGVIWRGGSTDYNAGFMSRLTITKDNSKSQVFFKMNSLQGDDTAIYYCAKNTGRGALDYWGQGTTLTVSS
VL: DIVMTQSPSSLAVTAGEKVTMRCKSSQSLLWSVNQNNYLSWYQQKQGQPPKLLISGASIRESWVPDRFTGSGSGTDFTLTISNVHAEDLAVYYCQHNHGSFLPYTFGGGTKLEIK

IVK, HxUPK1B, 250pM, fz, % live [1]: 103 % live
B12: SC115.52 (antibody, IgG1, V domains shown)
VH: QILLVQSGPELKKPGETVKISCKASGYTFTNLGMNWVKQAPGKGLKWMGWINTYTGDPTYVDDFKGRFAFSLETSASTAYLQISNLKNEDTATYFCTRGEKFYSFAYWGQGTLVTVSA
VL: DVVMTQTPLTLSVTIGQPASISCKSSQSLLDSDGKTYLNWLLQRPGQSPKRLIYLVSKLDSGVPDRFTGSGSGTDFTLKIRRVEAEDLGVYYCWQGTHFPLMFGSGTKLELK

IVK, HxUPK1B, 250pM, fz, % live [cont.] [2]: 25.6 % live
B13: SC115.84 (antibody, IgG2b, V domains shown)
VH: QVQLQQSGAELVKPGASVKISCETSGYTFSSYWMNWVKQRPGKGLEWIGQIDPGDGDTNYNGKFRGKATLTADKSSSTAYMQLNTLTSEDSAVYFCARSRQLRLDYWGQGTTLTVSS
VL: QIVLTQSPAIMSASPGERVTMTCSASSSVSSFYLYWYQQKSGSSPKVWIYSTSNLASGVPTRFSGSGSGTSYSLTINSMEAEDAATYYCQQWSSNPLTFGAGTKLELK

IVK, HxUPK1B, 250pM, fz, % live [1]: 22.2 % live
B15: SC115.48 (antibody, V domains shown)
VH: EVQLVETGGGLVQPKGSLKLSCAASGLSFNTYAMNWVRQAPGKGLEWVARIRSKSNNYATYYADSVKDRFTISRDDSQSMLYLQMNNLKTEDTAMYYCVTSLFDYWGQGTTLTVSS
VL: QLVVTQSSSASFSLGASAKLTCTLSSQHSTYTIEWYQQQPLKPPKYVMELKKDGSHSTGDGIPDRFSGSSSGADRYLSISNMQPEDEAIYICGVGEAIKEQFVYVFGGGTKVTVL

IVK, HxUPK1B, 250pM, fz, % live [cont.] [2]: 55.7 % live
B16: SC115.94 (antibody, IgG2a, V domains shown)
VH: QVQLQLSGAELVKPGASVKISCKASGYAFSSYWMNWVKQRPGKGLEWIGQIYPGDADTHYNGKFKGKATLTADKSSSTAYMQLSSLTSEDSAVYFCARLKLGRFDYWGQGTTLTVSS
VL: B15 VL with V4L, S57N, M82I, E96Y, A97T

IVK, HxUPK1B, 250pM, fz, % live [cont.] [2]: 17.2 % live
B17: SC115.36 (antibody, IgG1, V domains shown)
VH: EVQLQQSGTVVARPGASVKMSCKASGYSFTSYWMHWIKQRPGQGLDWIGSIYPGHSDATYNQRFKGKAKLTAVTSANTAYMELSSLTNEDSAVYYCSRSDGYYRGMAMDYWGQGTSVTVSS
VL: DIVLTQSPASLAVSLGQRATISCRASESVDGYGNSFMHWYRQKPGQPPKLLIYRASNLESGIPARFSGSGSRTDFALTINPVEADDVATYYCQQSYGDPRTFGGGTNLEIK

IVK, HxUPK1B, 250pM, fz, % live [1]: 98.3 % live
B19: SC115.65 (antibody, IgG2a, V domains shown)
VH: EVQLQQSGPELVKPGASVKISCKASGYSFTGYFMNWVMQSHGKSLEWIGRINPYNGDTFYNQKFKGKATLTVDKSSNTAHMELRSLASEDSGVYYCAGHNNYGVSWGQGTTLTVSS
VL: DVLMTQTPLSLPVSLGDQASISCRSSQIIVHSNGNTYLEWYLQKPGQSPKLLIYKVSNRFSGVPDRFSGSGSGTDFTLKISRVEAEDLGVYYCFQGSHLPYTFGGGTKLEIK

The remaining lines, values behind:

B1: SC115.18 (antibody, V domains shown)
VH: B7 VH
VL: B3 VL with S22R, T49P, Y55S, E61D, G74R, T78I, N100Y, F102L, G106A, I112L
IVK, HxUPK1B, 250pM, fz, % live [1]: 22.9 % live

B2: SC115.7 (antibody, V domains shown)
VH: EVQLQQSGAELVRPGASVKLSCTASGFNIKDSFIHWVKKRPEEGLEWIGWIDPEDGETKYAPKFQDKATITADTSSNTAYLQLSSLTSEDTAIYYCARRERFYGIYYALDYWGQGTSVTVSS
VL: B3 VL with P46L, T49P, G106S
IVK, HxUPK1B, 250pM, fz, % live [1]: 48.7 % live

B4: SC115.32 (antibody, IgG1, V domains shown)
VH: QVQLQQPGAELVRPGSSVKLSCKASGYTFNSYWMHWVKQRPIKGLEWIGNIDPSDGETYYNQAFKDKATLTVDKSSSTAYMQLSRLTSEDSAVYYCARRGTAQATTWLGYWGQGTLVTVSA
VL: B3 VL with T49P, N100Y, G106S
IVK, HxUPK1B, 250pM, fz, % live [cont.] [2]: 28.2 % live

B5: SC115.9 (antibody, IgG2a, V domains shown)
VH: B6 VH
VL: B3 VL with T49P, N100Y, F102L, G106A, I112L
IVK, HxUPK1B, 250pM, fz, % live [1]: 17.6 % live

B8: SC115.4 (antibody, IgG2a, V domains shown)
VH: DVKLVESGGGLVKLGGSLKLSCAASGFTFSSYPMSWVRQTPEMRLEWVATISSGGGITYYPDSVKGRFTISRDNAKNTLSLQMNSLRSEDTAMYYCSRLYYSDYEGYMDYWGQGTSVTVSS
VL: B9 VL with A88S, R107K
IVK, HxUPK1B, 250pM, fz, % live [1]: 89 % live

B11: SC115.13 (antibody, IgG1, V domains shown)
VH: B12 VH with L32Y, Y54K, D57V, V61P, N88D, K101S, Y103F, Y107F, T115A
VL: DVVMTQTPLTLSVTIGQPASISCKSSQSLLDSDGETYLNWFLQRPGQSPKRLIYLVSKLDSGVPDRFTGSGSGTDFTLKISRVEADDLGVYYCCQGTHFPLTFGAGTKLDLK
IVK, HxUPK1B, 250pM, fz, % live [1]: 99.4 % live

B14: SC115.26 (antibody, V domains shown)
VH: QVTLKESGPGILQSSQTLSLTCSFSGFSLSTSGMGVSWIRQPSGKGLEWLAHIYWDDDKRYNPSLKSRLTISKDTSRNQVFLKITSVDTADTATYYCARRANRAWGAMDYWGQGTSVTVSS
VL: DIVMSQSPSSLAVSVGEKVTMSCKSSQSLLYSSNQKNFLAWYQQKPGQSPKLLIYWASTRESGVPDRFTGSGSGTDFTLTISSVKAEDLAIYYCQQYYYYPYTFGGGTKLEIK
IVK, HxUPK1B, 250pM, fz, % live [cont.] [2]: 105 % live

B18: SC115.1 (antibody, IgG1, V domains shown)
VH: QVLLQQSGPQLVRPGASVKISCKASGYSFTSYWIHWVKQRPGQGLEWIGMIDPSDSETSFNQKFKDKATLTVDKSSSTAYMQLSSPTSEDSAVYYCARSYYASRFDYWGQGATLTVSS
VL: DIVMTQSPSSLAMSVGQKVTMNCKSSQSLLNSNNQKNYLAWYQQKPGQSPKLLVYFASTRESGVPDRFIGSGSGTDFTLTITSVQAEDLADYFCLQHYGTPLTFGAGTKLELK
IVK, HxUPK1B, 250pM, fz, % live [1]: 23.1 % live

B20: SC115.19 (antibody, IgG2a, V domains shown)
VH: QITLKESGPGILQPSQTLSLTCSFSGFSLSTSGMGVGWIRQPSGKGLEWLANIWWNDDQYYNPPLKSRLTVSKDTSKTQVFLKIAHVDTADTATYYCARIYSGNYGAMDYWGQGTSVTVSS
VL: DIVMTQAAFSNPVTLGTSASISCRSSKSLLHSNGITYLYWYLQKPGQSPQLLIYQMSSLASGVPDRFSSSGSGTDFTLRISRVEAEDVGVYYCAQSLELPYTFGGGTKLEIK
IVK, HxUPK1B, 250pM, fz, % live [1]: 20.4 % live
